Data set [1] has as its system PDGFRbeta (human, on MDA-MB-231 cells) (Homo sapiens). Put plainly: cell binding assay. As to conditions: intact MDA-MB-231 cells; 2'-fluoro pyrimidines; 10-500 nM aptamer, 10 min, room temperature, BlockAid blocking solution with 1 mg/ml yeast tRNA and 1 mg/ml salmon sperm DNA; salt; cited from earlier work.
In data set [2] the test system is PDGFRbeta (mouse, on 4T1 cells) (Mus musculus). Put plainly: streptavidin-biotin cell binding assay. As to conditions: apparent Kd on intact 4T1 cells; Scr background subtracted; 2'-fluoro pyrimidines; 4T1 cells (2x10^4/well), 10-500 nM aptamer, 10 min, room temperature, BlockAid blocking solution with 1 mg/ml yeast tRNA and 1 mg/ml salmon sperm DNA; salt and ….

As to Gint4.T (as in cited ref 31), the Kd in data set [1] is 57.5 nM.

On to Gint4.T, for which the Kd in data set [2] is 76.8 nM.
